According to patent publication US20190270826A1 (Janssen / Centocor, published 2019):
Positions count from the first letter of the chain named. Numbers in names are those of the source. Like-named read-outs stand apart in the source and are kept apart here.

Key:
[1] = target: T1, human IL1RAP on cells (endogenous) (human, UniProt Q9NPH3 21-570); assay: cell-based or functional assay
T1 sequence (looked up): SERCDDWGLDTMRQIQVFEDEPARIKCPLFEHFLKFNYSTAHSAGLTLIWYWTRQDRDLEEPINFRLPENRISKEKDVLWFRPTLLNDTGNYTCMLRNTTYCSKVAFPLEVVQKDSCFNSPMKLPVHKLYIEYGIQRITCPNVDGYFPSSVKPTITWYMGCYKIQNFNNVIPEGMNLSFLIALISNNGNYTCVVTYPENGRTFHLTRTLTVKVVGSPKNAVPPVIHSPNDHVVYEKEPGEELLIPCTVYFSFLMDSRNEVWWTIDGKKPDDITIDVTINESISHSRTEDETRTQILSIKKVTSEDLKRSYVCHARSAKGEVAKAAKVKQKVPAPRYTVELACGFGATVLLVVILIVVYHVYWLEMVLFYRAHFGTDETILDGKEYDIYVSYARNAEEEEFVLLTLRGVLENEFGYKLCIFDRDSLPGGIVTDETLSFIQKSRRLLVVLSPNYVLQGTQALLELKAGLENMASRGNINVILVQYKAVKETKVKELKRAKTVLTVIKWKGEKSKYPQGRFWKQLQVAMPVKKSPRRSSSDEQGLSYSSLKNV

[2] = target: T2, human FcRn (human, UniProt P55899 24-297; P61769 21-119, limits assumed); assay: AlphaScreen competition, human FcRn (n=1); displaced: biotinylated control mAb B21M WT IgG1 (m27); pH 6.0
T2 construct: GST-tagged
Description: (§1) Measurements were made using an AlphaScreen™ assay (Amplified Luminescent Proximity Homogeneous Assay (ALPHA), PerkinElmer, Wellesley, Mass.), a bead-based luminescent proximity assay. Laser excitation of a donor bead excites oxygen, which if sufficiently close to the acceptor bead generates a cascade of chemiluminescent events, ultimately leading to fluorescence emission at 520-620 nm.

[3] = target: T3, cyno IL1RAP ECD displayed on HEK-293F cells (pDisplay) (cynomolgus monkey, UniProt P59822 21-367 (rhesus entry)); assay: MSD cell binding, HEK-293F Cyno (clone CB8) cells displaying cyno IL1RAP ECD
T3 sequence: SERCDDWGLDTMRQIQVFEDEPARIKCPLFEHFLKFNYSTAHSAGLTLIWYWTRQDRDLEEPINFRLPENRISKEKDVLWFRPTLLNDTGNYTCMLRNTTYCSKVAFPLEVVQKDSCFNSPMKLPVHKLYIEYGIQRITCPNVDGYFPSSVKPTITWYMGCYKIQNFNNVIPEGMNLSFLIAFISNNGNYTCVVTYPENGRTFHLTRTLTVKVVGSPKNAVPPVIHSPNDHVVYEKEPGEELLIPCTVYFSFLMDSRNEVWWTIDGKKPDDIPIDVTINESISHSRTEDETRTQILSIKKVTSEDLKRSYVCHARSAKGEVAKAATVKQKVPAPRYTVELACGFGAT
Experimental: (§2) Cells were immobilized and IL1RAP antibody samples were assayed in triplicate. Briefly, expression supernatants of purified IL1RAP antibodies were normalized to 10 μg/mL. 5000 cells per well were plated into a 384 well plate (MA6000, cat. L21XB, MSD) and allowed to adhere for 2 hr. Cells were then blocked with 20% FBS in PBS (Gibco) for 15 mins. Antibody supernatants were then added and left at RT for 1 hr. Cells were washed 3 times with PBS and a ruthenium labeled secondary antibody (Mesoscale Discovery) was then added at 2 μg/mL and incubated for 1 hour at room temperature. A further washing step was then applied and 35 μL per well of 2×MSD Read buffer T (surfactant free) was then added and incubated for 5-30 minutes for detection. Plates were then read using Sector Imager 2400 (MSD). Data was normalized to controls and graphed using GraphPad Prism Version 5. A positive binder was determined to be a hit with a signal 3× greater than parental cell line background.
(§3) The MSD cell binding assay described in Example 4 was used to assess IL1RAP binding.

[4] = target: T4, human FcγRI (human, UniProt P12314 16-292, limits assumed); assay: AlphaScreen competition, human FcγRI (n=1); displaced: biotinylated control mAb B21M hIgG1 AlaAla; pH 7.2
T4 construct: GST-tagged, on glutathione acceptor beads; also called FcγRT [sic]
Description: as §1

[5] = target: T5, human IL1RAP ECD displayed on HEK-293F cells (pDisplay) (human, UniProt Q9NPH3 21-367); assay: MSD cell binding, HEK-293F Human (clone HE2) cells displaying human IL1RAP ECD
T5 construct: also called Human clone HE2 IL1RAP FL-ECD cell line
T5 sequence: T3 sequence with F183L, P273T, T326K
Experimental: as §2, §3

[6] = target: T6, mouse IL1RAP ECD displayed on HEK-293F cells (pDisplay) (mouse, UniProt Q61730 21-367); assay: MSD cell binding, HEK-293F Mouse clone 5 cells displaying mouse IL1RAP ECD
T6 sequence: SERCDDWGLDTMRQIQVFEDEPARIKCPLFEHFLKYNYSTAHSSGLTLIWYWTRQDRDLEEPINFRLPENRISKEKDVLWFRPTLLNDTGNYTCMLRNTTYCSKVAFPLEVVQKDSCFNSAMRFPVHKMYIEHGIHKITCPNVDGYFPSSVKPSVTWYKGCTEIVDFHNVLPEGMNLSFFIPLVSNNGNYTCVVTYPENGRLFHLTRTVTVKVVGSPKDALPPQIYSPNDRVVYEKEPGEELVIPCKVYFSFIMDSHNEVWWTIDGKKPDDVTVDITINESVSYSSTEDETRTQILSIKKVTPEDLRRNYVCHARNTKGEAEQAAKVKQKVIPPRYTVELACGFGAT
Experimental: as §2, §3

[7] = target: T7, rat IL1RAP ECD displayed on HEK-293F cells (pDisplay) (rat, UniProt Q63621 21-367); assay: MSD cell binding, HEK-293F Rat clone 1 cells displaying rat IL1RAP ECD
T7 sequence: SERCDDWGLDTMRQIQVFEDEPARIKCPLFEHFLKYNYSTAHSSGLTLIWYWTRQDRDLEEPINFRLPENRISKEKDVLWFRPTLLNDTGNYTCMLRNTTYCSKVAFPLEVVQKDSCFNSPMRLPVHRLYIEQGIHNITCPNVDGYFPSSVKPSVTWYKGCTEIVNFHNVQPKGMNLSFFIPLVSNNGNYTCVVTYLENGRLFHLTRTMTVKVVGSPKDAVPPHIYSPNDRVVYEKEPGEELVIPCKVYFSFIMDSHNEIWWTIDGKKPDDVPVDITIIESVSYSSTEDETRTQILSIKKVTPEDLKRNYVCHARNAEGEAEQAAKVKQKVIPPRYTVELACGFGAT
Experimental: as §2, §3

[8] = target: T8, recombinant cyno IL1RAP ECD (cynomolgus monkey, UniProt P59822 21-367 (rhesus entry)); assay: recombinant protein
T8 construct: also called rcynoIL1RAP
T8 sequence: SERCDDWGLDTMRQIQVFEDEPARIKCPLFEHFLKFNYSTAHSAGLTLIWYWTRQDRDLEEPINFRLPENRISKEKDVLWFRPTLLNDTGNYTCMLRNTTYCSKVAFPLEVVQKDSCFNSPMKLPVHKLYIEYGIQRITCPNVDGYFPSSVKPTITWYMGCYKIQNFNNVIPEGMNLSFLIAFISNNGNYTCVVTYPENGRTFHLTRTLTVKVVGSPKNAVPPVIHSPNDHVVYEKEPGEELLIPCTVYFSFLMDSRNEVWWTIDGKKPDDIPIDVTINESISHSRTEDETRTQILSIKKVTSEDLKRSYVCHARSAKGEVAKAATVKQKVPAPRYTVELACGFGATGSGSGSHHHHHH

[9] = target: T9, recombinant human IL1RAP ECD (human, UniProt Q9NPH3 21-367); assay: SPR (ProteOn)
T9 construct: His-tagged; also called hIL1RAP-ECD; rhuIL1RAP
T9 sequence: T8 sequence with F183L, P273T, T326K

[10] = target: T9, recombinant human IL1RAP ECD; assay: SPR (ProteOn); remark: listed apart in the source
[11] = target: T9, recombinant human IL1RAP ECD; assay: SPR, summary
[12] = target: T9, recombinant human IL1RAP ECD; assay: SPR; KD against parent IAPB4
[13] = target: T3, cyno IL1RAP ECD displayed on HEK-293F …; assay: HEK-293F cells (MSD)

B1: IC3B18 (bispecific antibody, human IgG4 S228P, lambda, F234A L235A)
heavy 1: EVQLVESGGGLVQPGGSLRLSCAASGFTFNTYAMNWVRQAPGKGLEWVARIRSKYNNYATYYAASVKGRFTISRDDSKNSLYLQMNSLKTEDTAVYYCARHGNFGNSYVSWFAYWGQGTLVTVSSASTKGPSVFPLAPCSRSTSESTAALGCLVKDYFPEPVTVSWNSGALTSGVHTFPAVLQSSGLYSLSSVVTVPSSSLGTKTYTCNVDHKPSNTKVDKRVESKYGPPCPPCPAPEAAGGPSVFLFPPKPKDTLMISRTPEVTCVVVDVSQEDPEVQFNWYVDGVEVHNAKTKPREEQFNSTYRVVSVLTVLHQDWLNGKEYKCKVSNKGLPSSIEKTISKAKGQPREPQVYTLPPSQEEMTKNQVSLTCLVKGFYPSDIAVEWESNGQPENNYKTTPPVLDSDGSFLLYSKLTVDKSRWQEGNVFSCSVMHEALHNHYTQKSLSLSLGK
light 1: QTVVTQEPSLTVSPGGTVTLTCRSSTGAVTTSNYANWVQQKPGQAPRGLIGGTNKRAPGTPARFSGSLLGGKAALTLSGVQPEDEAEYYCALWYSNLWVFGGGTKLTVLGQPKAAPSVTLFPPSSEELQANKATLVCLISDFYPGAVTVAWKADSSPVKAGVETTTPSKQSNNKYAASSYLSLTPEQWKSHRSYSCQVTHEGSTVEKTVAPTECS
heavy 2: not shown
light 2: QSALTQPRSVSGSPGHSVTISCTGTSSDVGDYNYVSWYQQRPGKVPKLLIYDVSKRPSGVPDRFSGSKSGNTASLTISGLQAEDEAIYFCASYAGNYNVVFGGGTKLTVLGQPKAAPSVTLFPPSSEELQANKATLVCLISDFYPGAVTVAWKADSSPVKAGVETTTPSKQSNNKYAASSYLSLTPEQWKSHRSYSCQVTHEGSTVEKTVAPTECS
notes: IgG4-PAA, Fab arm exchange; also called IAPB63 x CD3B219; IL1RAP x CD3
Average EC50, SKNO-1 cytotoxicity in whole blood, 24 hour [1]: 2.92 nM
Average EC50, SKNO-1 cytotoxicity in whole blood, 48 hour [1]: 0.804 nM
EC50, SKNO-1 cytotoxicity in whole blood, donor 00201, 24 hour [1]: 8.62 nM
EC50, SKNO-1 cytotoxicity in whole blood, donor 00201, 48 hour [1]: 0.704 nM
EC50, SKNO-1 cytotoxicity in whole blood, donor 00263, 24 hour [1]: 0.4 nM
EC50, SKNO-1 cytotoxicity in whole blood, donor 00263, 48 hour [1]: 0.58 nM
EC50, SKNO-1 cytotoxicity in whole blood, donor 27050, 48 hour [1]: 2.04 nM
EC50, SKNO-1 cytotoxicity in whole blood, donor 27060, 24 hour [1]: 2.5 nM
EC50, SKNO-1 cytotoxicity in whole blood, donor 27060, 48 hour [1]: 0.516 nM
EC50, SKNO-1 cytotoxicity in whole blood, donor 27067, 24 hour [1]: 1.11 nM
EC50, SKNO-1 cytotoxicity in whole blood, donor 27067, 48 hour [1]: 0.337 nM
EC50, SKNO-1 cytotoxicity in whole blood, donor 32771, 24 hour [1]: 1.94 nM
EC50, SKNO-1 cytotoxicity in whole blood, donor 32782, 48 hour [1]: 0.65 nM
IC50 (read off the curve) [2]: ~200 nM
EC50 (read off the curve) [3]: ~1 µg/mL
IC50 (read off the curve) [4]: ~90 nM
EC50 (read off the curve) [5]: ~1 µg/mL
binding result [6]: no binding (tested: 100 µg/mL)
binding result [7]: no binding (tested: 100 µg/mL)

B2: IAPB04 (antibody, human IgG4 S228P, kappa, F234A L235A, V domains shown)
VH: QVQLVQSGAEVKKPGSSVKVSCKASGGTFSSYAISWVRQAPGQGLEWMGGISAIFGTANYAQKFQGRVTITADESTSTAYMELSSLRSEDTAVYYCARHLHNGIHLDYWGQGTLVTVSS
VL: EIVLTQSPATLSLSPGERATLSCRASQSVSNFLAWYQQKPGQAPRLLIYGASNRATGIPARFSGSGSGTDFTLTISSLEPEDFAVYYCQQGKHWPWTFGQGTKVEIKR
notes: IgG4-PAA; also called IAPB4; phage hit B4
binding result [8]: binds
Kd [9]: 4.73 nM
koff [9]: 0.0014 s⁻¹
kon [9]: 295000 M⁻¹ s⁻¹
Kd [10]: 5.66 nM
koff [10]: 0.00144 s⁻¹
kon [10]: 255000 M⁻¹ s⁻¹
Kd [11]: 5.66 nM
Fold Different from parent [12]: 1 fold
binding result [13]: binds

B3: IAPB65 (antibody, human IgG4 S228P, kappa, F234A L235A, V domains shown)
VH: B2 VH with G103A
VL: B2 VL
notes: IgG4-PAA; whole chains; also called IAPB4-HC-G103A; IgG4-PAA, B4 mutant
Kd [9]: 10.4 nM
koff [9]: 0.00341 s⁻¹
kon [9]: 329000 M⁻¹ s⁻¹
Kd [11]: 10.4 nM
Fold Different from parent [12]: 2.2 fold
